# Data: patent publication US20220380801A1, “TRIPARTITE SYSTEMS FOR PROTEIN DIMERIZATION AND METHODS OF USE” (priority 2019, published 2022)
# Like-named read-outs stand apart in the source and are kept apart here.
# B1: PRSIM_47: Tn3 PRSIM binding molecule, SEQ ID NO: 9 (protein)
# chain: RLDAPSQIEVKDVTDTTALITWSRPGVSIWYFELTYGIKDVPGDRTTIKLDYRSYYYSIGNLKPDTEYEVSLISGSYGLVGVRASNPAKITFKTGL
# modifications: PRSIM_47
# B2: PRSIM_32: Tn3 PRSIM binding molecule, SEQ ID NO: 6 (protein)
# chain: RLDAPSQIEVKDVTDTTALITWWSPRYYYASISGFELTYGIKDVPGDRTTIKLDYASNDYSIGNLKPDTEYEVSLISWNYGDWRYSSSNPAKITFKTGL
# modifications: PRSIM_32
# B3: PRSIM_01: scFv PRSIM binding molecule, SEQ ID NO: 10 (protein)
# scFv: QVQLVQSGAEVKKPGSSVKVSCKASGGTFSSYAISWVRQAPGQGLEWMGGIIPIFGTANYAQKFQGRVTITADESTSTAYMELSSLRSEDTAVYYCARGQGYITVFDYWGQGTLVTVSSGGGGSGGGGSGGGGSAQSVLTQPPSASGTPGQRVTISCSGSSSNIGSNTVNWYQQLPGTAPKLLIYSNNQRPSGVPDRFSGSKSGTSASLAISGLQSEDEADYYCAAWDHHWEQVVFGGGTKLTVL
# modifications: PRSIM_01
# B4: PRSIM_36: Tn3 PRSIM binding molecule, SEQ ID NO: 8 (protein)
# chain: RLDAPSQIEVKDVTDTTALITWSWPRDDDYDIWYFELTYGIKDVPGDRTTIKLLNYASPYSIGNLKPDTEYEVSLISVVPDTYGRGTSNPAKITFKTGL
# modifications: PRSIM_36
# What was measured:
# [1] = target: T1, HCV NS3/4A PR (S139A) (Hepatitis C virus subtype 1a, UniProt A8DG50, A1066T/I1043Q/I1044E/L1039E/L1040E/L1047Q/S1165A, form not given); assay: HTRF binding screen; settings: in the presence of simeprevir
# Protocol: scFv and Tn3 PRSIM binding molecules that were selective for the HCV NS3/4A PR (S139A) were identified in homogeneous time-resolved fluorescence (HTRF®) assays run in parallel to measure binding in the presence and absence of simeprevir. HCV NS3/4A PR (S139A), and serial dilutions of purified PRSIM binding molecules, were prepared in assay buffer (PBS containing 0.4 M potassium fluoride and 0.1% BSA). Streptavidin cryptate (Cisbio) was pre-mixed with either anti-FLAG XL665 (to detect the Tn3 molecules) or anti-c-myc XL665 (to detect the scFv molecules) in assay buffer. For each assay 2.5 μl of sample titration was added to 2.5 μl HCV NS3/4A PR (S139A) and 2.5 μl of pre-mixed detection reagents. Either 2.5 μl simeprevir or 2.5 μl of a DMSO blank were also added to each well. Background was defined using wells with zero sample addition. Assay plates were incubated overnight at 4° C., prior to reading the time resolved fluorescence at 620 nm and 665 nm emission wavelengths using a PerkinElmer Envision plate reader. Data was analysed by calculating % Delta F values for each sample. Delta F was determined according to equation 1.
# % Delta F=((sample 665 nm/620 nm ratio value)−(background 665 nm/620 nm ratio value)/(background 665 nm/620 nm ratio value))×100 Equation 1
# Selective binding molecules are defined as those scFv and Tn3 PRSIM binding molecules that bind to HCV NS3/4A PR (S139A) in complex with simeprevir and no binding to HCV NS3/4A PR (S139A).
# [2] = target: T1, HCV NS3/4A PR (S139A); assay: Biacore 8K binding kinetics of PRSIM binding molecules; settings: 10 nM simeprevir present
# Protocol: The scFv and Tn3 PRSIM binding molecules were covalently immobilised to a CM5 chip surface using standard amine coupling techniques at a concentration of 1 μg/ml in 10 mM sodium acetate pH 4.5.
# (§1) The HCV NS3/4A PR (S139A), or BSA control, was diluted 1:4 (1.25-20 nM)±10 nM simeprevir in 10 mM Hepes pH 7.4, 150 mM NaCl, 0.05% Surfactant P20, 0.01% DMSO, ensuring constant simeprevir and DMSO concentration. The samples were flowed over the chip at 50 μl/min using single cycle kinetics, with 120 sec association and 600 sec dissociation. The chip surface was regenerated with two 20 sec pulses of 10 mM Glycine-HCl pH 3.0. The final sensorgrams were analysed using the Biacore 8K Evaluation Software and the affinity constant KD was determined using a 1:1 binding model. The same method was used for measuring the affinity of the HCV NS3/4A PR mutants for PRSIM_23 with minor deviations. The mutants were diluted 1:4 (2.5-40 nM)±simeprevir in 10 mM Hepes pH 7.4, 150 mM NaCl, 0.05% Surfactant P20, 0.08% DMSO, ensuring constant simeprevir and DMSO concentration. The samples were flowed over the chip at 50 μl/min using single cycle kinetics, with 180 sec association and 600 sec dissociation.
# [3] = target: BSA (Bos taurus, UniProt P02769); assay: Biacore 8K BSA control; format: binding; design: key: # = no binding; * = minimal non-specific binding; settings: 10 nM simeprevir present
# Protocol: as §1
# [4] = tested on: luciferase reporter gene in HEK293 cells; assay: Transcriptional regulation assay (split transcription factor), luciferase reporter; format: cell-based, human; settings: one copy; for EC50: simeprevir dose-response
# Description: The iDimerize regulated transcription system (Takara) was used to test the ability of PRSIM-based CIDs to regulate gene expression. […] The DBD and AD are separately fused to the two protein components of a CID such that, only in the presence of the small molecule inducer, the AD is brought into close proximity to the DBD, recruiting the transcription machinery to a promoter harbouring the DBD recognition sites. The iDimerize regulated transcription system (Takara) provides two vectors, pHet-Act1-2 and pZFHD1-Luciferase. The pHet-Act1-2 vector encodes two fusion proteins that represent a positive control: one is a fusion between FRB (T82L mutant; DmrC) and an activation domain (AD) from human p65 (SEQ ID NO: 42); the other is a fusion protein comprised of a DNA binding domain (ZFHD1) (SEQ ID NO: 43) fused to three tandem copies of FKBP12 (DmrA). These sequences are preceded by a CMV promoter and separated by an internal ribosome entry site (IRES). The ZFHD1 vector encodes luciferase preceded by an inducible promoter consisting of 12 copies of the recognition sequence of the ZFHD1 DBD upstream of a minimal IL-2 promoter. Binding of the DBD to its recognition sequence and recruitment of the transcriptional machinery by the AD initiates transcription of the luciferase reporter gene. The DNA sequence encoding HCV NS3/4A PR (S139A) was purchased as a DNA string from GeneArt and cloned into the pHet-Act1-2 vector as either an N-terminal fusion partner to the activation domain (SEQ ID NO: 44) (replacing FRB) or as a C-terminal fusion partner to the DNA binding domain (SEQ ID NO: 45) (replacing FKBP12) with flexible linkers (TGGGGSGGGGS (SEQ ID NO: 185) and SA, respectively) between the fusion partners. Subsequently, sequences encoding one copy of a panel of 12 PRSIM molecules (Table 2) were purchased as DNA strings from GeneArt and were cloned using Gibson assembly into the HCV NS3/4A PR (S139A)-containing pHetAct1-2 constructs described above, as a fusion partner to either the DBD (SEQ ID NOS: 46-56) or AD (SEQ ID NOS: 57-67), respectively. An equivalent construct was generated to replace the three copies of FKBP12 in pHet-Act1-2 with a single copy of FKBP12. The sequence of the constructs encoding both activation domain and DNA-binding domain fusion proteins was confirmed by Sanger sequencing of the entire coding region.
# Sequences encoding the three HCV NS3/4A PR (S139A) mutants (Table 6) were purchased as DNA strings from GeneArt and were cloned using Gibson assembly into the pHetAct1-2 HCV NS3/4A PR (S139A)-PRSIM_23 (3 tandem copy) construct described above as a fusion partner to the AD (SEQ ID NOs: 211-216).
# All transcriptional regulation assays were performed in adherent HEK293 cells cultured in 384-well plates. Cells enzymatically dissociated from a tissue culture flask were counted and plated at 7.5×10^3 cells/well in a 384-well plate. The plates were incubated overnight at 37° C. with 5% CO2 to allow the cells to adhere. On day 2, the cells were co-transfected with a pHet-Act1-2 plasmid (containing the FRB:FKBP12 control fusion proteins (Clontech) or the HCV NS3/4A PR (S139A):PRSIM fusion proteins) and a pZFHD1 plasmid (encoding either luciferase (Clontech) or NanoLuc-PEST (as described above)) using Lipofectamine LTX (ThermoFisher). On day 3, wells were treated with different concentrations of either A/C heterodimeriser (for the FRB:FKBP12 control), simeprevir or with vehicle control, and 24 hours later luminescence was quantified with an Envision plate reader immediately following addition of SteadyGlo luciferase substrate (Promega) or Nano-Glo Vivazine luciferase substrate (Promega). Alternatively, reverse transfections were carried out on Day 1, addition of dimeriser on Day 2 and luminescence quantified 24 hours later on Day 3.
# Luminescence readings were converted into fold-change by dividing the signal in the presence of simeprevir by that in the absence of simeprevir.
# [5] = tested on: split Nanoluciferase (LgBiT/SmBiT) reconstitution in HEK293 cells; assay: Split NanoLuc reconstitution assay (NanoBiT); format: cell-based, human; settings: 100 nM simeprevir over no simeprevir; LgBiT fused to the C-terminus of the PRSIM binding module
# Protocol: The ability of the PRSIM binding molecules to promote dimerization of two proteins to which they are fused was assessed with the NanoBiT system (Promega) that measures the reconstitution of a split Nanoluciferase (NanoLuc) and the resultant luminescence upon supply of a live cell imaging Nano-Glo NanoLuc substrate (FIG. 8). In the NanoBiT system, one interaction partner is fused via a flexible linker to an 18 kDa fragment of NanoLuc termed LgBiT (for “large bit”) (SEQ ID NO: 16) and the other is fused via an equivalent linker to a 1.3 kDa peptide SmBiT (“small bit”) (SEQ ID NO: 17). LgBit and SmBiT have a low affinity (190 μM) for each other in the absence of interacting partners and will not reconstitute to form an active luciferase enzyme. Once fused to the interacting proteins of a CID and supplied with inducer, they will reconstitute, and luminescence can be measured. The NanoBiT system supplies two sets of control proteins fused to LgBiT and SmBiT: a set of constitutively interacting proteins PRKAR2A:PRKACA; and the FRB:FKBP12 pair whose dimerization can be induced with rapamycin.
# To establish the optimal orientation of the HCV NS3/4A PR (S139A) and PRSIM components, constructs whereby HCV NS3/4A PR (S139A) was fused at either the N- or C-terminus to SmBiT (SEQ ID NOs: 18 and 19, respectively) and a parallel set of constructs for each PRSIM binding module fused to either the N- or C-terminus of LgBiT (SEQ ID NOS: 20-30 and 31-41, respectively). The NanoBiT kit (Promega) supplies a set of vectors enabling these constructs to be generated. DNA strings encoding HCV NS3/4A PR (S139A) and the PRSIM molecules were purchased from GeneArt and amplified via PCR with primers with extensions containing restriction sites compatible with the NanoBiT vectors and were cloned via Gibson assembly. All constructs were verified via Sanger sequencing of the entire coding sequence.
# All NanoBiT screens were performed in adherent HEK293 cells cultured in 96-well plates. Cells enzymatically dissociated from a tissue culture flask were counted and plated at 2×10^4 cells/well in a white, opaque-bottomed 96-well plate (Costar 3917). The plates were incubated overnight at 37° C. with 5% CO2 to allow the cells to adhere. On day 2, plasmids were co-transfected with Lipofectamine LTX (ThermoFisher) at a final concentration of 100 ng/well (50 ng/plasmid, one encoding a SmBiT fusion, the other a LgBiT fusion). On day 3, wells were treated with 100 nM of the appropriate small molecule inducer (rapamycin (FRB:FKBP12) or simeprevir (HCV NS3/4A PR:PRSIM)) or vehicle control, and luminescence was quantified with an Envision plate reader immediately following addition of Nano-Glo Live Cell Substrate (Promega).
# [6] = PRSIM fused to AD, read-out: EC50
# [7] = PRSIM fused to DBD, read-out: EC50
molecule,measurement,setting,value
B1,HTRF max. signal (% delta F),[1],1367 % delta F
same,Rmax,[2],9 RUs
same,ka,[2],1.32e+10 M⁻¹ s⁻¹
same,kd,[2],51.2 s⁻¹
same,BSA control,[3],#
same,Max fold change,[4]; PRSIM fused to AD,3.85
same,EC50,[4]; [6],6.15 nM
same,Max fold change,[4]; PRSIM fused to DBD,3
same,EC50,[4]; [7],8.87 nM
B2,HTRF max. signal (% delta F),[1],1955 % delta F
same,Rmax,[2],19.9 RUs
same,ka,[2],2.51 E+09 M^−1 s^−1
same,kd,[2],40.1 s⁻¹
same,BSA control,[3],#
same,Max fold change,[4]; PRSIM fused to AD,2.2
same,EC50,[4]; [6],12.3 nM
same,Max fold change,[4]; PRSIM fused to DBD,65.77
same,EC50,[4]; [7],29.3 nM
B3,fold-change in luminescence,[5],16 fold
same,Max fold change,[4]; PRSIM fused to AD,5.83
same,EC50,[4]; PRSIM fused to AD,Ambiguous
same,Max fold change,[4]; PRSIM fused to DBD,86.76
same,EC50,[4]; [7],6.99 nM
B4,HTRF max. signal (% delta F),[1],1440 % delta F
same,Rmax,[2],214.4 RUs
same,ka,[2],5.15e+06 M⁻¹ s⁻¹
same,kd,[2],0.0498 s⁻¹
same,BSA control,[3],#
same,Max fold change,[4]; PRSIM fused to AD,33.74
same,EC50,[4]; [6],3.54 nM
same,Max fold change,[4]; PRSIM fused to DBD,73.3
same,EC50,[4]; [7],5.66 nM
